Results from US20190345535.
Values joined by “and” are separate entries in the source; they are usually repeats but may differ in a detail not shown here. Equal entries are not always repeated.

Key:
[1] = molecular target: GFP^2-Pflu-H3-RLuc2 fusion protein
[2] = molecular target: GFP^2-Pflu-H4-RLuc2 fusion protein
[3] = molecular target: GFP^2-Pflu-H1-RLuc2 fusion protein
[4] = molecular target: GFP^2-Pflu-H2-RLuc2 fusion protein
[5] = molecular target: GFP^2-Pflu3-RLuc2 fusion protein (Pflu sensor 3)
[6] = molecular target: GFP^2-plas1-RLuc2 fusion protein (BRET^2 plasmin sensor)

B1: bovine plasmin (Sigma) (protein)
chain: RIYLLECKTGNGQTYRGTTAETKSGVTCQKWSATSPHVPKFSPEKFPLAGLEENYCRNPDNDENGPWCYTTDPDKRYDYCDIPECEDKCMHCSGENYEGKIAKTMSGRDCQAWDSQSPHAHGYIPSKFPNKNLKMNYCRNPDGEPRPWCFTTDPQKRWEFCDIPRCTTPPPSSGPKYQCLKGTGKNYGGTVAVTESGHTCQRWSEQTPHKHNRTPENFPCKNLEENYCRNPNGEKAPWCYTTNSEVRWEYCTIPSCESSPLSTERMDVPVPPEQTPVPQDCYHGNGQSYRGTSSTTITGRKCQSWSSMTPHRHLKTPENYPNAGLTMNYCRNPDADKSPWCYTTDPRVRWEFCNLKKCSETPEQVPAAPQAPGVENPPEADCMIGTGKSYRGKKATTVAGVPCQEWAAQEPHQHSIFTPETNPQSGLERNYCRNPDGDVNGPWCYTMNPRKPFDYCDVPQCESSFDCGKPKVEPKKCSGRIVGGCVSKPHSWPWQVSLRRSSRHFCGGTLISPKWVLTAAHCLDNILALSFYKVILGAHNEKVREQSVQEIPVSRLFREPSQADIALLKLSRPAIITKEVIPACLPPPNYMVAARTECYITGWGETQGTFGEGLLKEAHLPVIENKVCNRNEYLDGRVKPTELCAGHLIGGTDSCQGDSGGPLVCFEKDKYILQGVTSWGLGCARPNKPGVYVRVSPYVPWIEETMRRN
Plasmin response (%), BRET^2, 1 nM Bovine plasmin in UHT milk [1]: 0.9% | Plasmin response (%), BRET^2, 1 nM Bovine plasmin in UHT milk [2]: 6.3% | Plasmin response (%), BRET^2, 1 nM Bovine plasmin in UHT milk [3]: 4.9% | Plasmin response (%), BRET^2, 1 nM Bovine plasmin in UHT milk [4]: 7.9%

B2: human plasmin (Sigma) (protein)
chain: KVYLSECKTGNGKNYRGTMSKTKNGITCQKWSSTSPHRPRFSPATHPSEGLEENYCRNPDNDPQGPWCYTTDPEKRYDYCDILECEEECMHCSGENYDGKISKTMSGLECQAWDSQSPHAHGYIPSKFPNKNLKKNYCRNPDRELRPWCFTTDPNKRWELCDIPRCTTPPPSSGPTYQCLKGTGENYRGNVAVTVSGHTCQHWSAQTPHTHNRTPENFPCKNLDENYCRNPDGKRAPWCHTTNSQVRWEYCKIPSCDSSPVSTEQLAPTAPPELTPVVQDCYHGDGQSYRGTSSTTTTGKKCQSWSSMTPHRHQKTPENYPNAGLTMNYCRNPDADKGPWCFTTDPSVRWEYCNLKKCSGTEASVVAPPPVVLLPDVETPSEEDCMFGNGKGYRGKRATTVTGTPCQDWAAQEPHRHSIFTPETNPRAGLEKNYCRNPDGDVGGPWCYTTNPRKLYDYCDVPQCAAPSFDCGKPQVEPKKCPGRVVGGCVAHPHSWPWQVSLRTRFGMHFCGGTLISPEWVLTAAHCLEKSPRPSSYKVILGAHQEVNLEPHVQEIEVSRLFLEPTRKDIALLKLSSPAVITDKVIPACLPSPNYVVADRTECFITGWGETQGTFGAGLLKEAQLPVIENKVCNRYEFLNGRVQSTELCAGHLAGGTDSCQGDSGGPLVCFEKDKYILQGVTSWGLGCARPNKPGVYVRVSRFVTWIEGVMRNN
Linear range (10%-90% BRET^2 response), 50% full fat UHT milk [5]: 452 nM and 3620 nM | Linear response, BRET^2, raw milk, one-step pre-treatment protocol [6]: between 1.6 nM (90%) and 128 nM (10%) plasmin | Linear response, BRET^2, raw milk, one-step pre-treatment with low power sonication [6]: linear between 5.5 nM (90%) and 107 nM (10%)
